Reference: patent publication US20250009876A1 (H LUNDBECK A S, published 2025)

Columns and labels:
[1] = target: T1, PACAP38 (Pituitary Adenylate Cyclase-Activating Polypeptide, 38 amino acids) (human, not fully specified; the C-terminal lysine is amidated); test: SPR (ProteOn XPR36), antibody amine-coupled, peptide analyte, 1:1 Langmuir fit
T1 construct: In the HTRF and PC-12 cell assays the peptide was N-terminally or C-terminally biotinylated; unlabelled in SPR; also called human PACAP38; huPACAP (1-38)
T1 peptide: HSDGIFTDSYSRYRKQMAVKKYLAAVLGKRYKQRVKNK
Procedure: (§1) Binding affinities of monoclonal antibodies for human PACAP were estimated using SPR on the PROTEON™ XPR36 (Bio-Rad, Hercules, CA). Antibody was immobilized to the surface of general amine coupling (“GLC” or “GLM”) Chips (Bio-Rad, Hercules, CA). […] Antigen (ranging from 1.23 nM to 100 nM) was typically run sequentially with association times of 2-4 minutes and dissociation times of 3-120 minutes grouped with the PROTEON™ Manager Software (v3.1.0.6 (Bio-Rad, Hercules, CA)) and fitted using a 1:1 Langmuir binding model. Surfaces were regenerated between analyte queries using 0.85% Phosphoric Acid.

[2] = target: T2, PACAP27 (Pituitary Adenylate Cyclase-Activating Polypeptide, 27 amino acids) (human, the C-terminal leucine is amidated); test: as above
T2 construct: also called human PACAP27
T2 peptide: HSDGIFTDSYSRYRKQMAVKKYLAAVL
Procedure: as §1

[3] = target: T1, PACAP38 (Pituitary Adenylate …); test: cell surface binding assay (DELFIA TRF): antibody pre-incubated with PACAP38, added to PAC1-R-expressing PC-12 cells, detected with Eu anti-human IgG; the antibody is held on the cells through cell-bound PACAP38

B1: Ab1.H (antibody, V domains shown)
VH: EVQLVESGGGLVQPGGSLRLSCAASGFTVSSAVMNWVRQAPGKGLEWIGSIVASGTTYYASSANGRFTISRDNSKNTLYLQMNSLRAEDTAVYYCARGGGEFFIWGQGTLVTVSS
VL: DIQMTQSPSTLSASVGDRVTITCQSSESVYSNYLSWYQQKPGKAPKFLIYQASNLASGVPSRFSGSGSGTEFTLTISSLQPDDFATYYCAGGYSENIVGFGGGTKVEIKR
B1 was tested, and the Kd [1] was 0.021 nM, the koff [1] was 1e-05 s⁻¹ and the Kd [2] was 0.013 nM. For the same binder, the koff [2] was 1e-05 s⁻¹ and the “EC50 (read off the curve)” value [3] was roughly 2 nM.
